The values that follow come from US20230295345A1 (published 2023).

Assay [1] deals with T1, matriptase-3 (TMPRSS7) over-expressed in HEK293T cells (human, UniProt Q7RTY8 1-843).
T1 sequence: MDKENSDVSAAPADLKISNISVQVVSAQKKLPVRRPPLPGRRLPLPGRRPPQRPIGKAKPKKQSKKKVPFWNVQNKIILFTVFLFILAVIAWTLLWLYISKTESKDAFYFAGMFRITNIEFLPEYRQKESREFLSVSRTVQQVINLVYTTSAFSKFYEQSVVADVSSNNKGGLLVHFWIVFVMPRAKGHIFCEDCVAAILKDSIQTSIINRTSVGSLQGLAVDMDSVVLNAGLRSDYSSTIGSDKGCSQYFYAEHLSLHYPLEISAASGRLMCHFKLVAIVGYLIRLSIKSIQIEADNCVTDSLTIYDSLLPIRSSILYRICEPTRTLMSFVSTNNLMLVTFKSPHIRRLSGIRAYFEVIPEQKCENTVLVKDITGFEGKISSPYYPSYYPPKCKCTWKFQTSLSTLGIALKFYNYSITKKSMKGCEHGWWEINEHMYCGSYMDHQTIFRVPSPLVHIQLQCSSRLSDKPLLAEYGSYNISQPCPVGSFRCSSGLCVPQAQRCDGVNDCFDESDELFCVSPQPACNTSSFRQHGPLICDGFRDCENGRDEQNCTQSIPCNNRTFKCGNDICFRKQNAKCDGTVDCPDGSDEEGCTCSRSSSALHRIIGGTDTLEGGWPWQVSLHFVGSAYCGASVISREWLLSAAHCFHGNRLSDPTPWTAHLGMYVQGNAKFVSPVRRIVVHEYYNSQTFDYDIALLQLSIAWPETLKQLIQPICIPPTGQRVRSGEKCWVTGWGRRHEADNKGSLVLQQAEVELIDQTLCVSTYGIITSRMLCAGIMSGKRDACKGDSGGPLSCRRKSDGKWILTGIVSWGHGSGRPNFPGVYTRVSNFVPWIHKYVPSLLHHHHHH
As to the kind of experiment: FACS on permeabilized HEK293T cells over-expressing TMPRSS7. The source says:
To determine if anti-TMPRSS6 antibodies bind to homologous matriptases, HEK293T cells over-expressing matriptase (ST14) (SEQ ID NO: 100) (FIGS. 5B, 5E, 5H, 5K, 5N, 5Q), and HEK293T cells over-expressing matriptase-3 (TMPRSS7) (SEQ ID NO: 101) (FIGS. 5C, 5F, 5I, 5L, 5O, 5R) were collected (generated in house). HEK293T cells stably expressing human TMPRSS6 (matriptase-2) (SEQ ID NO:97) (generated by LakePharma Inc as described above, FIGS. 5A, 5D, 5G, 5J, 5M, 5P) were used as a positive control and HEK293T cells (FIGS. 5A-5R) were used as a negative control (as described above). Cells were blocked and permeabilized with dPBS + 3% BSA + 0.1% Tween-20 before incubation with various anti-TMPRSS6 antibodies diluted in dPBS + 3% BSA + 0.1% Tween-20. Cells were incubated with anti-TMPRSS6 antibodies and their humanized variants at a concentration of roughly 1 µg/ml for 1 hr. After incubation, cells were washed with dPBS and incubated with goat anti-mouse IgG conjugated with AlexaFluor-488 (Invitrogen, FIGS. 5A-5I) or goat anti-human IgG conjugated with Allophycocyanin (APC) (Jackson Immuno Research, FIGS. 5J-5R) as a 2° antibody. At last, cells were washed with dPBS and re-suspended with dPBS + 1 mM EDTA, and then subjected to FACS analysis using a NOVOCYTE® Flow Cytometer. Bound antibody was determined by excitation at 488 nm and measurement of emission (FITC-A) at 530 nm (FIGS. 5A-5I) or by excitation at 640 nm and measurement of emission (APC-A) at 675 nm (FIGS. 5J-5R). Results for these assays are shown in histogram plots in FIGS. 5A-5R.

For assay [2], the target named is T2, mouse TMPRSS6 expressed on HEK293T cells (MoTMPRSS6-(His)6) (mouse, UniProt Q9DBI0 1-811).
T2 construct: stably expressed in HEK293T cells; also called murine TMPRSS6
T2 sequence: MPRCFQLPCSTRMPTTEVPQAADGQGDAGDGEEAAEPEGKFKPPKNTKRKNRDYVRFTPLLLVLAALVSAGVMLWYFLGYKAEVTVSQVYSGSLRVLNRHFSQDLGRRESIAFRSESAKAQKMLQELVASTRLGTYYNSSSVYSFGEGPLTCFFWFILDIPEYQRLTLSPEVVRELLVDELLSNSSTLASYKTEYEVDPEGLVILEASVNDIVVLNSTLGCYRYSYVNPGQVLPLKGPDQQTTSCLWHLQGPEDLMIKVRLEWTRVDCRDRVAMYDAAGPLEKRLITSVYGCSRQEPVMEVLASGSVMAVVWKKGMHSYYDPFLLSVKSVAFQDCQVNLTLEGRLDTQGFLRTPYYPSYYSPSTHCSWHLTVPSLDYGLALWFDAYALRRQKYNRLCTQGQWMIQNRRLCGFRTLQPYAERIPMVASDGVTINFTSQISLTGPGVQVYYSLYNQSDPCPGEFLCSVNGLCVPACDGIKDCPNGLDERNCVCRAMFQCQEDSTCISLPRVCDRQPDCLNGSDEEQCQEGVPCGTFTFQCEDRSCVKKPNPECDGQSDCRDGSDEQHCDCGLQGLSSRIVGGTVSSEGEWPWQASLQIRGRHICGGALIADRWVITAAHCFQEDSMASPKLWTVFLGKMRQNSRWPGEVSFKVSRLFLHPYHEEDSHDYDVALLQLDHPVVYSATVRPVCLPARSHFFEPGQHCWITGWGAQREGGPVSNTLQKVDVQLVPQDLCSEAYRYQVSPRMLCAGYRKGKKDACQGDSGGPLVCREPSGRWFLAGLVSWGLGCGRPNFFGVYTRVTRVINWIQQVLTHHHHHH
Nature of the assay: cell surface ELISA on fixed HEK293T cells expressing mouse TMPRSS6. The protocol:
HEK293T cells stably expressing mouse TMPRSS6 (generated by LakePharma Inc as described above, FIGS. 4J, 4L, 4N, 4P, 4R, 4T) or cynomolgus monkey (generated in house as described above, FIGS. 4K, 4M, 4O, 4Q, 4S, 4U) were fixed with methanol (100%), and washed with dPBS (Dulbecco’s phosphate-buffered saline, Corning Cellgro) before incubation with various concentrations of anti-TMPRSS6 antibodies and their humanized variants diluted in BSA medium (DMEM + 1% Pen/Strep + 10 mM HEPES + 1 mg/ml BSA (Sigma-Aldrich)). Purified mouse IgG (FIGS. 4J-4O) or Human IgG1 (FIGS. 4P-4U) was used as a control. After incubation, cells were washed with BSA medium and then incubated with goat anti-mouse (Invitrogen, FIGS. 4J-4O) or anti-human (Millipore, FIGS. 4P-4U) IgG conjugated with HRP as a 2° antibody. Finally, cells were washed with dPBS to remove unbound antibody and color developed with ELISA liquid substrate (Sigma-Aldrich), followed by stopping the reaction with addition of the same volume of ELISA liquid substrate of 1 M H₂SO₄. Bound antibody was measured by absorbance at OD₄₅₀ₙₘ.

B1: MWTx-001 anti-TMPRSS6 antibody (antibody, mouse IgG2a, kappa, V domains shown)
VH: QVQLQQPGAELAKPGASVKMSCKASGYTFTSYWITWVKQRPGQDLEWIGNIYPGSGSTYYNEKFKSKATLTVDTSSRTAYMQLSSLTSADSAVYYCAPYDSDYAMDYWGQGTSVTVSS
VL: DIKMTQSPSSMYASLGERVTITCKASQDINNYLSWFQQKPGKSPKTLIYRANRLVDGVPSRVSGSGSGQDYSLTISSLEYEDVGIYFCLQYDEFPLTFGAGTKLELKR
notes: Mouse monoclonal antibody from a hybridoma (ATCC PTA-126759)
As for B1, the binding result was “no binding (tested: roughly 1 µg/ml)” in assay [1] and “binds” in assay [2].

B2: MWTx-003 anti-TMPRSS6 antibody (antibody, mouse IgG2b, kappa, V domains shown)
VH: EVQLQQSGAELVKPGASVKLSCTASGFNIEDYYIHWVKERTEQGLEWIGRIDPEDGETTYAPQFQGKATIIPDTSSNTAYMQLSSLTSEDAAVYYCARSIYLDPMDYWGQGTSVTVSS
VL: DIVMTQSHKFMSTSVGDRVSITCKASQDVTTAVAWYQQKPGQSPKILIYWATTRHTGVPDRFTGSISGTTYILTISSVQAEDLALYYCQQHYSTPYTFGGGTKLEIKR
notes: Mouse monoclonal antibody from a hybridoma (ATCC PTA-126761); also called r4K12B (recombinantly expressed version, same HC and LC)
Consider B2, for which the binding result in assay [1] is “no binding (tested: roughly 1 µg/ml)”; in assay [2] it was “binds”.

B3: MWTx-002 anti-TMPRSS6 antibody (antibody, mouse IgG2b, kappa, V domains shown)
VH: EVQLQQSGAELVKPGASVKLSCTASGFNIKDYYIHWVKERTEQGLEWFGRIDPEDGESEYAPKFQGKATLTADTSSNTAYLQLSSLTSEDTAVYYCTRGDSMMVTYFDYWGQGTTLTVSS
VL: DIVMTQSHKFMSTSVGDRVSITCKASQDVSTAVAWYQQKPGQSPKLLIYWAFTRHTGVPDRFTSTGSGTDYALTISSVQAEDLALYYCQQHYRSPWTFGGGTKLEIKR
notes: Mouse monoclonal antibody from a hybridoma (ATCC PTA-126760)
On to B3, for which the binding result in assay [1] is given as “no binding (tested: roughly 1 µg/ml)”.

B4: hzMWTx-001Var anti-TMPRSS6 antibody (antibody, human IgG1, kappa, N297A, V domains shown)
VH: EVQLVQSGAEVKKPGASVKVSCKASGYTFTSYWITWVRQAPGQRLEWIGNIYPGSGSTYYNEKFKSKATITRDTSSRTAYMELSSLRSEDTAVYYCAPYDADYAMDYWGQGTLVTVSS
VL: DIQMTQSPSSLSASVGDRVTITCKASQDISNYLSWFQQKPGKAPKLLIYRANRLVEGVPSRFSGSGSGTDFTLTISSLQPEDFATYFCLQYDEFPLTFGGGTKVEIKR
notes: Humanized variant of MWTx-001, human IgG1/kappa
Turning to B4, the binding result is listed as “no binding (tested: roughly 1 µg/ml)” in assay [1] and “binds” in assay [2].

B5: hzMWTx-002Var anti-TMPRSS6 antibody (antibody, human IgG1, kappa, N297A, V domains shown)
VH: EVQLVQSGAEVKKPGASVKVSCKASGFNIKDYYIHWVRQATGQGLEWMGRIDPEDAESEYAPKFQGRVTITADTSTDTAYMELSSLRSEDTAVYYCTRGDSMMVTYFDYWGQGTLVTVSS
VL: DIQMTQSPSSLSASVGDRVTITCKASQDVSTAVAWYQQKPGKAPKLLIYWAFTRHTGVPSRFSGSGSGTDYALTISSLQPEDFATYYCQQHYRSPWTFGGGTKVEIKR
notes: Humanized variant of MWTx-002, human IgG1/kappa
Regarding B5, the binding result in assay [1] was “no binding (tested: roughly 1 µg/ml)”; in assay [2], “no binding”.

B6: hzMWTx-003Var anti-TMPRSS6 antibody (antibody, human IgG1, kappa, L234A L235A, V domains shown)
VH: QVQLVQSGAEVKKPGASVKVSCKASGFNIEDYYMHWVRQAPGQRLEWMGRIDPEDAETTYSPKFQGRVTIIPDTSANTAYMELSSLRSEDTAVYYCARSIYLDPMDYWGQGTLVTVSS
VL: DIQMTQSPKSLSASVGDRVTITCRASQDVTTALAWYQQKPGQSPKLLIYWATTRHSGVPSRFSGSGSGTDFTLTISSLQPEDFATYYCQQHYSTPYTFGQGTKLEIKR
notes: Humanized variant of MWTx-003, human IgG1/kappa
In the case of B6, the binding result is listed as “no binding (tested: roughly 1 µg/ml)” in assay [1] and “binds” in assay [2].
